The values that follow come from patent US20050164163A1 (MEDICAL RESEARCH COUNCIL, published 2005).

The target in assay [1] is T1, HCMV UL54 protein (HCMV DNA polymerase) (HCMV strain AD169, UniProt P08546 1-1242).
T1 construct: mature; Purified from Sf cells infected with AcUL54
T1 sequence: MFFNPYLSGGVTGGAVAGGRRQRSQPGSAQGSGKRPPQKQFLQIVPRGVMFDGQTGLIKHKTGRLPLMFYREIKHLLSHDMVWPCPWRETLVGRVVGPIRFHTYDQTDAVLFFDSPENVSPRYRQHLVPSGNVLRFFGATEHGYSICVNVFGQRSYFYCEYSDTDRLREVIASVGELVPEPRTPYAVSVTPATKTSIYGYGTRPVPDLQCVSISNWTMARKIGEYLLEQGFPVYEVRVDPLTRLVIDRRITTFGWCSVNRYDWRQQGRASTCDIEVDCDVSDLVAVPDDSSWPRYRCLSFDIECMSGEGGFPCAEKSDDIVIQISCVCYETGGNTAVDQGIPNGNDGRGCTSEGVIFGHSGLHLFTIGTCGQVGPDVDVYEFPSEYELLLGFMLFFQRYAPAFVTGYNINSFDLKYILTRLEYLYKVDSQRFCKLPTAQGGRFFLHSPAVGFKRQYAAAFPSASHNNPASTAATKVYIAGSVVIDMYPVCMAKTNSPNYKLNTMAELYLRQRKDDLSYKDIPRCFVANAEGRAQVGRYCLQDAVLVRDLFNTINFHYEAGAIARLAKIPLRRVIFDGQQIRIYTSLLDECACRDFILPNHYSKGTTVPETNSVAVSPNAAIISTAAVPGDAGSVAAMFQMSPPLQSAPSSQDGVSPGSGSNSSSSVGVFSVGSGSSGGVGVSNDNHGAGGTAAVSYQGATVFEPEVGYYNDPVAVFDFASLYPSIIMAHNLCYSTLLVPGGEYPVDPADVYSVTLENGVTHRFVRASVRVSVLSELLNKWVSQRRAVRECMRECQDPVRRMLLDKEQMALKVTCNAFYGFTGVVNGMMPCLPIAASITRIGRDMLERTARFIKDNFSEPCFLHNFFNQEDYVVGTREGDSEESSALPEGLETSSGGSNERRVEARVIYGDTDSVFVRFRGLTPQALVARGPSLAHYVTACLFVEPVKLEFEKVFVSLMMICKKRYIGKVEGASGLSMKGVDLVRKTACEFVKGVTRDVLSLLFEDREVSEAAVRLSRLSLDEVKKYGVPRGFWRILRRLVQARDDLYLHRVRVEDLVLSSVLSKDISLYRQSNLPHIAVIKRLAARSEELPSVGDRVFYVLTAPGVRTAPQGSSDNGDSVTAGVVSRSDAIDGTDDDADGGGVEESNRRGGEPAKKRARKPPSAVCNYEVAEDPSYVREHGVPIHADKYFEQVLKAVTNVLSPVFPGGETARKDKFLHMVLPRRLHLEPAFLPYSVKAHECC
Kind of assay: ELISA, UL102 coated (0 to 0.4 µg), UL54 added (0 to 0.6 µg), detected with antiserum 144.

In assay [2] the target is T2, HSV-1 POL (UL30 protein, catalytic subunit of the HSV-1 DNA polymerase) (HSV-1, UniProt P04293 1-1235).
T2 construct: mature; Purified from Sf cells infected with baculovirus AcUL30
T2 sequence (looked up): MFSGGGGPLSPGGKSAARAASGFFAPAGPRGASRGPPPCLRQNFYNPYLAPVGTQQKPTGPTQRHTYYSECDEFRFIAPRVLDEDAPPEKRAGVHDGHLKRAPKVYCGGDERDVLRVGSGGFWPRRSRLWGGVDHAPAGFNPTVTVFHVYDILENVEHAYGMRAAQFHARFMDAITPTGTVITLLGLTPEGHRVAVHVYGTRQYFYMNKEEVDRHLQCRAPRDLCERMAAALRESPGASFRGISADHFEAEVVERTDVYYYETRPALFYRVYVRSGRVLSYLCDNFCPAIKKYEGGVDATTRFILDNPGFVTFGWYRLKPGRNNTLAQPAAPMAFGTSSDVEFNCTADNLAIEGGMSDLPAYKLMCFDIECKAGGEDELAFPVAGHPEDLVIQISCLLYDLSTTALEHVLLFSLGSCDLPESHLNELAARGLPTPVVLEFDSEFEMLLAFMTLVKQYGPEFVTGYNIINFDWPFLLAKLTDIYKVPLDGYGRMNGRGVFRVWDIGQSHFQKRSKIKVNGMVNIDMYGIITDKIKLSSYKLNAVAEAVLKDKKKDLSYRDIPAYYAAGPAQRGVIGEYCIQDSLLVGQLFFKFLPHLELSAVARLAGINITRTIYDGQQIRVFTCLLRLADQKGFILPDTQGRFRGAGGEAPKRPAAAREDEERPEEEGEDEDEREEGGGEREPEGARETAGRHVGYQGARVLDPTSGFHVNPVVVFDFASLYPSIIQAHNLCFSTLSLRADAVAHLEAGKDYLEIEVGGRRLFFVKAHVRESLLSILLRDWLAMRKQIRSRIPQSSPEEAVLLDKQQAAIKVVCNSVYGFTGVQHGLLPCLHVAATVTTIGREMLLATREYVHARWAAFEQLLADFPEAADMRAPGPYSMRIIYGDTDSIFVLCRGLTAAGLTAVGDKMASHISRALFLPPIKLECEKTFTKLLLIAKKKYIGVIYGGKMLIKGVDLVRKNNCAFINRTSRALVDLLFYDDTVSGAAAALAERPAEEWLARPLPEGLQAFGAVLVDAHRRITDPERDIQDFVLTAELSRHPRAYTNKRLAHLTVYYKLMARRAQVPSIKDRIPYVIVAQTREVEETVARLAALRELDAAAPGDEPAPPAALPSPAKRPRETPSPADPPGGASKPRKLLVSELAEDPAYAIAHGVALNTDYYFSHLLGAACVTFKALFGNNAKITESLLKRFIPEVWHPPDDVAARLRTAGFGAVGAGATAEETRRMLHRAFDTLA
Kind of assay: competition ELISA of FIG. 7: peptide incubated with POL 15 min, then added to UL8-coated wells.

The target in assay [3] is T2, HSV-1 POL (UL30 protein, catalytic …). Kind of assay: competition ELISA: peptide incubated with POL, then added to UL8-coated wells; average of independent experiments. In general terms: ELISA stands for enzyme-linked immunosorbent assay.
Assay [4] has the same target. Kind of assay: competition ELISA: peptide incubated with POL 15 min, then added to UL8-coated wells.

B1: HCMV UL102 protein (other)
chain: MTAQPPLHHRHHPYTLFGTSCHLSWYGLLEASVPIVQCLFLDLGGGRAEPRLHTFVVRGDRLPPAEVRAVHRASYAALASAVTTDADERRRGLEQRSAVLARVLLEGSALIRVLARTFTPVQIQTDASGVEILEAAPALGVETAALSNALSLFHVAKLVVIGSYPEVHEPRVVTHTAERVSEEYGTHAHKKLRRGYYAYDLAMSFRVGTHKYVLERDDEAVLARLFEVREVCFLRTCLRLVTPVGFVAVAVTDEQCCLLLQSAWTHLYDVLFRGFAGQPPLRDYLGPDLFETGAARSFFFPGFPPVPVYAVHGLHTLMRETALDAAAEVLSWCGLPDIVGSAGKLEVEPCALSLGVPEDEWQVFGTEAGGGAVRLNATAFRERPAGGDRRWLLPPLPRDDGDGENNVVEVSSSTGGAHPPSDDATFTVHVRDATLHRVLIVDLVERVLAKCVRARDFNPYVRYSHRLHTYAVCEKFIENLRFRSRRAFWQIQSLLGYISEHVTSACASAGLLWVLSRGHREFYVYDGYSGHGPVSAEVCVRTVVDCYWRKLFGGDDPGPTCRVQESAPGVLLVWGDERLVGPFNFFYGNGGAGGSPLHGVVGGFAAGHCGGACCAGCVVTHRHSSGGGGSGVGDADHASGGGLDAAAGSGHNGGSDRVSPSTPPAALGGCCCAAGGDWLSAVGHVLGRLPALLRERVSVSELEAVYREILFRFVARRNDVDFWLLRFQPGENEVRPHAGVIDCAPFHGVWAEQGQIIVQSRDTALAADIGYGVYVDKAFAMLTACVEVWARELLSSSTASTTACSSSSVLSSALPSVTSSSSGTATVSPPSCSSSSATWLEERDEWVRSLAVDAQHAAKRVASEGLRFFRLNA
notes: mature; Purified from Sf cells infected with AcUL102; The 873-residue form follows Smith and Pari (1995)
As for B1, the binding result in assay [1] is “binds”.

B2: Peptide 7 (Table 2), UL8 amino acids 719-738 (peptide)
peptide: IELVFTGVLAGVWGEGGKFV
notes: Synthetic 20-residue peptide from HSV-1 UL8
Turning to B2, the IC50 – broadly, the concentration that gives 50% inhibition – is roughly 1000 nM in assay [2] and 2250 nM in assay [3].

B3: Peptide 5 (Table 2), UL8 residues 722-750 (peptide)
peptide: VFTGVLAGVWGEGGKFVYPFDDKMSFLFA
notes: Synthetic peptide, C-terminal 29 amino acids of HSV-1 UL8
As to B3, the binding result in assay [4] is on record as “binds”.
